We go through one molecule from publication PMC11289891, “Selection and characterization of a peptide-based complement modulator targeting C1 of the innate immune system†” (RSC Chemical Biology, 2024).

By EC50 is commonly meant the concentration giving half of the maximal effect. Read a low EC50 as an effect from little substance.

Positions of bridges follow the written chain, without caps; N, C: chain ends.

The target of the experiment is T1, C1q (full-length; ligand binding and scaffolding part of the C1 complex) (human (endogenous in human serum), UniProt P02745 23-245; P02746 28-253; P02747 29-245).
T1 construct: complement C1q subunit A, human; complement C1q subunit B, human; complement C1q subunit C, human; In serum and in the bought C1 protein C1q stands in the C1 complex with the proteases C1r and C1s (C1r2s2); in the ELISAs it was detected with anti-C1q; also called gC1q (globular head domain of full-length C1q); source: endogenous, normal human serum (Complement Technology); purified C1 protein …
T1 sequence (P02745 23-245, chain 1 of 3): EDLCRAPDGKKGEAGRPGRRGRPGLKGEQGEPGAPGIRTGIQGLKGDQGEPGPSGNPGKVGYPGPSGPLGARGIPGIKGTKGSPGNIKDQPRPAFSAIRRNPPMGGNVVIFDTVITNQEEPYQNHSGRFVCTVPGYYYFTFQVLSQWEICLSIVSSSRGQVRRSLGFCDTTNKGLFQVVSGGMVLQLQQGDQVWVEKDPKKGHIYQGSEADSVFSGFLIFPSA
T1 sequence (P02746 28-253, chain 2 of 3): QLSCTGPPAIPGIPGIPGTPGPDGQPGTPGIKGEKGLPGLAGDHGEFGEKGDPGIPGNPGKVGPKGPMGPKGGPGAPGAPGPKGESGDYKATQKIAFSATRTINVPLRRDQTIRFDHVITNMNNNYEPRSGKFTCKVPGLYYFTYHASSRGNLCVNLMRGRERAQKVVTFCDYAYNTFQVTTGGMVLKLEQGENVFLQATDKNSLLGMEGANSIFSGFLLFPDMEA
T1 sequence (P02747 29-245, chain 3 of 3): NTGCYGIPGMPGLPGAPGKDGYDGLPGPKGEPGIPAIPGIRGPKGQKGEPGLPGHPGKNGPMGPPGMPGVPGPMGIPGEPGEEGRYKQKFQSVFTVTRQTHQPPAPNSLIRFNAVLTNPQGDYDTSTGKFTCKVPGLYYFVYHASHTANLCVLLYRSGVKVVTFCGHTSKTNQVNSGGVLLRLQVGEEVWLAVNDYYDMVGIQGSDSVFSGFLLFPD
As to the kind of experiment: ELISA; titration of purified cL3-Bt bound to streptavidin-coated plates, 1% normal human serum in RPMI, 37 °C 1 hour, C1q detected with rabbit anti-C1q. The settings on record: one partner purified. A general note: An ELISA detects its analyte on a solid surface through an enzyme-linked reagent.

B1: cyclic-L3, biotinylated (cL3-Bt) (peptide)
chain: {CH2CO}-YTVTFYPDPFTLQFIACGS-{K(biotin)}
modifications: thioether N-17
Molecule B1 returned a 50% effective concentration (EC50) of around 6 µM.
